Consider one molecule from patent publication US20140193401A1 (published 2014).

Holding throughout (assay): SPR (BIAcore 3000), mAb 1B7 immobilised on CM5 chip, toxin injected
Background: In SPR one partner is held on a chip, and binding of the other changes the refractive index at the surface.

The target of assay [1] is T1, PTx-S1-220 T156A (Bordetella pertussis, UniProt P04977 35-254).
T1 chain: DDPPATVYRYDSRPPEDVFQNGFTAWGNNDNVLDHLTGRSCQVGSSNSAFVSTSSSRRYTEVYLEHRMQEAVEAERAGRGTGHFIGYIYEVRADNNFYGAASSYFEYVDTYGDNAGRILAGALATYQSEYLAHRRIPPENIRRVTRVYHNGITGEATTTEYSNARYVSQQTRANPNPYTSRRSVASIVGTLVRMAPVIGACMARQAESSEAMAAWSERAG

Assay [2] addresses T2, PTx-S1-220 E155A (Bordetella pertussis, UniProt P04977 35-254).
T2 chain: T1 chain with E155A, A156T

For assay [3], the target named is T3, PTx-S1-220 R39A (Bordetella pertussis, UniProt P04977 35-254).
T3 chain: T1 chain with R39A, A156T

Assay [4] has as its target T4, PTx-S1-220 Y148A (Bordetella pertussis, UniProt P04977 35-254).
T4 chain: T1 chain with Y148A, A156T

Assay [5] has as its target T5, PTx-S1-220 N176A (Bordetella pertussis, UniProt P04977 35-254).
T5 chain: T1 chain with A156T, N176A

Assay [6] has as its target T6, PTx-S1-220 E16A (Bordetella pertussis, UniProt P04977 35-254).
T6 chain: T1 chain with E16A, A156T

For assay [7], the target named is T7, PTx-S1-220 (truncated PTx-S1, residues 1-220, strain Tohama I, variant B) (Bordetella pertussis, UniProt P04977 35-254).
T7 construct: also called WT PTx-S1-220; PTx-S1B
T7 sequence: T1 chain with A156T

For assay [8], the target named is T8, PTx-S1-220 T81A (Bordetella pertussis, UniProt P04977 35-254).
T8 chain: T1 chain with T81A, A156T

For assay [9], the target named is T9, PTx-S1-220 T153A (Bordetella pertussis, UniProt P04977 35-254).
T9 chain: T1 chain with T153A, A156T

Changes are numbered by the printed parent chain.

B1: murine monoclonal antibody 1B7 (antibody, V domains shown)
VH: EVQLQQSGSELVRPGASVKLSCKASGYKFTSYWMHWVKQRPGQGLEWIGNIFPGSGSTNYDEKFNSKATLTVDTSSNTAYMQLSSLTSEDSAVYYCTRWLSGAYFDYWGQGTTLTVSS
VL: DIQMTQSPALMSASPGEKVTMTCSASSSVSFMYWYQQKPRSSPKPWIYLTSNLPSGVPARFSGSGSGTSYSLTISSMEAEDAATYYCQQWSSHPPTFGSGTKLEIKR
notes: also called mAb 1B7; 1B7 mAb
What is called koff is a measure of how fast the partners let go of each other. Low readings indicate slow dissociation, high ones fast dissociation. Take B1: the koff was found to be 0.0011 s⁻¹ in [1]; 0.0011 s⁻¹ in [2]; 0.003 s⁻¹ in assay [3]; 0.029 s⁻¹ in assay [4]; 0.0011 s⁻¹ in assay [5]; 0.0016 s⁻¹ in assay [6]. Moreover, the koff in [7] was 0.0014 s⁻¹; in [8], 0.0017 s⁻¹; in assay [9] it was 0.002 s⁻¹.
